Assay results taken from the supplement of paper PMC9170038.

Test system: MS2 coat protein
Assay: apparent KD of MS2 coat protein; designed switch direction (-1 OFF switch, 1 ON switch): -1; higher = weaker reporter binding
Procedure, shortened: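 An oligonucleotide input, 200 uM small-molecule ligand, or no input was present during titration of SNAP-549-labelled MS2 coat protein, which was doubled from 0.7 or 1.5 nM to 3 µM. Designed RNA switches had been transcribed on Illumina chips by stalled E. coli RNA polymerase. Apparent KD per design is the median over clusters of curves fitted to normalised cluster fluorescence.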

[1] = input ligand: microRNA oligo, concentration not stated
[2] = Eterna round: R95, input ligand: microRNA oligo, concentration not stated
[3] = Eterna round: R95, input ligand: FMN 200 uM
[4] = Eterna round: R95, input ligand: none

| Sequence | apparent KD of MS2 coat protein (input ligand: FMN 200 uM) | apparent KD of MS2 coat protein [1] | apparent KD of MS2 coat protein (input ligand: none) | apparent KD of MS2 coat protein [2] | apparent KD of MS2 coat protein [3] | apparent KD of MS2 coat protein [4] |
| --- | --- | --- | --- | --- | --- | --- |
| CCGCUCCGUGUAGGAUAUUGGCGUGCUCUGCGCCGAGAAGGACAUGAGGAUCACCCAUGUAUGUUAUUAUCACGCGUGGCGCAU [Design 78] (Eterna round: R96, puzzle: Exclusion NG 1) | 30.6 nM | 11.5 nM | 18.6 nM | – | – | – |
| CUUUUGUGAGGAUAUUAGUAGUAAAUAAAUAAAAUUAUUACUGAGAAGGCACAUGAGGAUCACCCAUGUUCCUU [Salish 062 v20] (Eterna round: R97, puzzle: Exclusion 4) | 63.6 nM | – | 17 nM | – | – | – |
| ACUGGUCGAGGAUAUACAUGACGUGCUUCGGCACGAGAUCUACAUGAGGAUCACCCAUGUAGAAGGCGACCAGU [E2/11-A2] (Eterna round: R97, puzzle: Exclusion 2) | 735 nM | – | 65 nM | – | – | – |
| GCUGGGUCAGGAUAUACAGGGUCGAAAGAUCUGUGAUACCUACAUGAGGAUCACCCAUGUAGAAGGGACUGGGC [ChP 11-04-2015 #10] (puzzle: Exclusion 2) | – | – | – | 14.2 nM | – | – |
| UAGUACAUCUAUGGGAGUAACAUGAGGAUCACCCAUGUAUGUCUUGUUUUUUGUUCGUCAUAGGCCUUUUGAUUGGC [JR_SV3TOV1_Sub028] (puzzle: Sensor v3, turn-off variant 1) | – | – | – | 228 nM | 107 nM | 113 nM |
| GAAAAGGCAGAGGAUAUUUCAGAUCAAAGCUGCAAAGAAGGCUGCACAUGAGGAUCACCCAUGUGGUCUUAAAA [Mod of Quesina 5 - Jieux - Exclusion 6] (Eterna round: R97, puzzle: Exclusion 6) | 176 nM | – | 18.4 nM | – | – | – |
| CUAGACCGAGGAUAUAUUAUGUGAAACAUGAGGAUCACCCAUGUAAUAUGAUGGAUGUAAAUAGAAGGCGGUCUAG [Mat - Exclusion 5 - JL mod - D29] (puzzle: Exclusion 5) | – | – | – | 53.4 nM | 31.4 nM | 23 nM |
| CACGUCUGAGGAUAUCGUUUUUUGUACAUGAGGAUCACCCAUGUCCAAUUUUGUAUAUUACGAGAAGGCAGUGGAA [JR_E5_Sub090] (puzzle: Exclusion 5) | – | – | – | 12.3 nM | – | – |
| GGAAGGUGAGGAUAUACUAAGCCGGAAACGGCAGGUGAGAGACAUGAGGAUCACCCAUGUAGAAGGCACGGAGA [AK-MS2ROC-r4-exclusion2-17] (Eterna round: R97, puzzle: Exclusion 2) | 291 nM | – | 85.5 nM | – | – | – |
| AUUAUAUAGGAAGGAUAUAGAAUAUUAUUUUAACAUGAGGAUCACCCAUGUAACCUUAUGUGUAGCUAGAAGGUCCAUUUAUUA [Title] (Eterna round: R96, puzzle: Exclusion NG 2) | – | 95.6 nM | – | – | – | – |
| GAUACACAUGAGGAUCACCCAUGUGAGGAUAUGCGUACGUUGUCCGUAGGCGACGUGCGCAGAAGGCGCGAGGU [Mat - Mod of JL D92] (puzzle: Exclusion 1) | – | – | – | 31.8 nM | – | – |
| AGUACUAACACGGGUGUGUUAGUACAAUAAGCUUGUGAAACAUGAGGAUCACCCAUGUCCUCAUAAGCUCGUCUUAU [salish99_TOv2_r3_075] (Eterna round: R96, puzzle: Sensor v3, turn-off variant 2) | 15.3 nM | 503 nM | 16.6 nM | – | – | – |
| UUGAAUUAGCAGGAUAUGGGAGUCGAUAGACACCCAGAAGGGCUAACAUGAGGAUCACCCAUGUGUCCUAUCAA [Mod of Eli 22 - Jieux - Exclusion 6] (Eterna round: R97, puzzle: Exclusion 6) | 204 nM | – | 33.9 nM | – | – | – |
| AAAACAAGCAUAAGAUCCCACAUGAGGAUCACCCAUGUGCUCGUCUUAUAAAAGGUUUCGACGAAAACGUCGAGACC [Eli 91 v30] (Eterna round: R97, puzzle: Sensor, turn-off variant 1) | 29.6 nM | – | 29.6 nM | – | – | – |
| AAUCCUGAAGUUAGGAUAUGAAGUAUCACUACACUUUAGAAGGAACUUGAGGAUCACCCAAGUAGCCGUGAGGC [jl-bmx4.4.65 ViennaUCT mod] (Eterna round: R97, puzzle: Brourd's mod of Exclusion 4) | 68 nM | – | 22.4 nM | – | – | – |
| UUAUGACAUGAGGAUCACCCAUGUAAGGAUAUCGAAGGAGAUGGUUACGAGGCCGCUACGAGAAGGUACGCGGG [Eternabot (L2) Solution 23] (Eterna round: R97, puzzle: Exclusion 1) | 161 nM | – | 109 nM | – | – | – |
| GUCGUACAUGAGGAUCACCCAUGUGAGGAUAUGGGCGGCGCCGCAAAAGCGGCGCCGCCCAGAAGGCGCAUGAU [Malcxlusion 6 - Jieux - Exclusion 1] (Eterna round: R97, puzzle: Exclusion 1) | 234 nM | – | 79.6 nM | – | – | – |
| AGUCAGGCGGUAGGAUAUCCAAAUCGAGUGACCCUCUCAUAACAUGAGGAUCACCCAUGUCGGUGGGAGAAGGGCCGUAAGGCG [Mat - Exclusion NG 2 - Mod of JL - D63] (Eterna round: R96, puzzle: Exclusion NG 2) | 48.2 nM | 25.8 nM | 29.5 nM | – | – | – |
| AAUAACAAGCAGGUCCUAAACAUGAGGAUCACCCAUGUGCUCGUCUUGUAAAGUACUAUCACGAAAGUGAUAGUACA [Sensor 3, v1 - 60] (puzzle: Sensor v3, turn-off variant 1) | – | – | – | 297 nM | 26.8 nM | 28.3 nM |
| UAGAUUCAUUCCUCUAUAAACAUGAGGAUCACCCAUGUAAGUGAGGAUAUAGUAGGAGUUGUAUACUAGAAGGCACUUAGUUUU [JR_ExcNG3_Sub049] (Eterna round: R96, puzzle: Exclusion NG 3) | 49.4 nM | 10.7 nM | 13.3 nM | – | – | – |
| CCGUCCUCAGUUAGGAUAUCUUCCGGAGAACGAAAGGAGAAGGAACAUGAGGAUCACCCAUGUGGCCCGAUGGA [Eternabot (Original) Solution 16] (Eterna round: R97, puzzle: Brourd's mod of Exclusion 4) | 85.3 nM | – | 29.3 nM | – | – | – |
| UUAAAUCAUGUAGGAUAUGCUUUGCGAAGCGAGGCAGAAGGACAUGAGGAUCACCCAUGUGCUAGCGUCCGCGUACGGAUGCAA [Mat - Exclusion NG 1 - Mod of JL - D61] (Eterna round: R96, puzzle: Exclusion NG 1) | 166 nM | 57.3 nM | 83 nM | – | – | – |
| UUUAAUUUUUUUUUUUUACAAGCUUUUUGCUCGUCUUAUACAUGAGGAUCACCCAUGUGGGUGGAAGAUAAAUUAUC [JMF 12] (puzzle: Sensor v3, turn-off variant 2) | – | – | – | 75.1 nM | 113 nM | 134 nM |
| CCUAGUUGGUAAGGAUAUCCUACAUUAUUCUGACCCGUGCAAGCUACAUGAGGAUCACCCAUGUGGGAGAAGGUGCGUUAACGU [Design 8] (Eterna round: R96, puzzle: Exclusion NG 2) | 55.7 nM | 35.2 nM | 55.1 nM | – | – | – |
| GAAAACGCUGAGGAUAUUUCUGAUCAAAGCAGCAAAGAAGGCAGCACAUGAGGAUCACCCAUGUGGUCUUCAAA [jl-ex6-4.03 ViennaUCT mod] (Eterna round: R97, puzzle: Exclusion 6) | 907 nM | – | 32.1 nM | – | – | – |
| UAACCACAUGAGGAUCACCCAUGUGAGGAUAUGUCCAUAUUCGGCAAAUCGGAUAUGGACAGAAGGCACACCGG [JR_Exclusion1_Sub010] (puzzle: Exclusion 1) | – | – | – | 40.7 nM | – | – |
| GGUGAGAGCAAGGAUAUGCAGAAGUGAGAAAGUGCAGAAGGUGCUACAUGAGGAUCACCCAUGUUGGAUGUGUU [JR_E6_Sub015] (puzzle: Exclusion 6) | – | – | – | 34.2 nM | – | – |
| UCCUCGUCAGGAUAUGUCUCGACGCGGUCCGCGUGCGGUCAACAGAAGGGACAUGAGGAUCACCCAUGUGCAGA [Eternabot (Original) Solution 38] (Eterna round: R97, puzzle: Exclusion 4) | 228 nM | – | 204 nM | – | – | – |
| GUAGAUCGAGUUAGGAUAUGAUUACUAUCCGAAAAUCAGAAGGAACUUGAGGAUCACCCAAGUAUAGAUGAUAU [JR_BMEx4_Sub053] (Eterna round: R97, puzzle: Brourd's mod of Exclusion 4) | 21.7 nM | – | 16.9 nM | – | – | – |
| GAUUAAUGCAAGGAUAUGCUAUUAAUUUAUUUUGCAGAAGGUGCAACAUGAGGAUCACCCAUGUUGGAGGGUAU [JR_E6_Sub027] (Eterna round: R96, puzzle: Exclusion 6) | 34.9 nM | 17.8 nM | 25.1 nM | – | – | – |
